This is an account of results in doi:10.1101/2023.05.23.541938.

This assay deals with TgPKS2 thioester reductase domain (TgTR) (Toxoplasma gondii). The assay can be described thus: ITC.

holo-TgACP4 (domain or fragment) returned an equilibrium dissociation constant (Kd) of 5.75 µM.
